The series concerns the target T1, CytRN (CytR DNA-binding domain) (Escherichia coli, UniProt P0ACN7 1-66).
T1 sequence: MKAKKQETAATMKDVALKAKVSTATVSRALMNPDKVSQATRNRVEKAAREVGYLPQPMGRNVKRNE
Description: NMR.

B1: udp half-site DNA (dsDNA)
DNA 1: ATTTATGCAACGCA
DNA 2: TGCGTTGCATAAAT
B1: the binding result is given as “binds”.

(Values after publication PMC10306299.)
